In article PMC1894825:

Tested on: Lsr2 (Mycobacterium tuberculosis H37Rv)
Assay: EMSA

Row | Substance | Kd
1 | PiniBAC 227-bp amplicon | 1 µM
2 | 16S rRNA gene 200-bp amplicon | 1 µM
